Measurements taken from paper PMC10968512, “Cry Toxins Use Multiple ATP-Binding Cassette Transporter Subfamily C Members as Low-Efficiency Receptors in Bombyx mori” (Biomolecules, 2024).

Assays:
[1] = molecular target: T1, Bombyx mori ABC transporter subfamily C member 1, BmABCC1-FLAG (Bombyx mori); test: SPR; BIACORE; BmABCC immobilised on a CM5 sensor chip; toxins (or BSA) in PBST (PBS with 0.005% Tween 20) at 500 and/or 1000 nM; 120 s association, 240 s dissociation; fitted with two-state reaction models (BIAevaluation ver.4.1); details: both partners purified
T1 construct: BmABCC1 (MRP1) of Bombyx mori, protein XP_012546136.1, cDNA XM_012690682.3 amplified from midgut cDNA; also called MRP1 (name in the NCBI)

[2] = molecular target: T2, Bombyx mori ABC transporter subfamily C member 4, BmABCC4-FLAG (Bombyx mori); test: as above; details: both partners purified
T2 construct: BmABCC4 (MRP4) of Bombyx mori, protein XP_021205339.2, cDNA XM_021349664.2 amplified from midgut cDNA; also called MRP4 (name in the NCBI)
T2 sequence (main, as listed by the source): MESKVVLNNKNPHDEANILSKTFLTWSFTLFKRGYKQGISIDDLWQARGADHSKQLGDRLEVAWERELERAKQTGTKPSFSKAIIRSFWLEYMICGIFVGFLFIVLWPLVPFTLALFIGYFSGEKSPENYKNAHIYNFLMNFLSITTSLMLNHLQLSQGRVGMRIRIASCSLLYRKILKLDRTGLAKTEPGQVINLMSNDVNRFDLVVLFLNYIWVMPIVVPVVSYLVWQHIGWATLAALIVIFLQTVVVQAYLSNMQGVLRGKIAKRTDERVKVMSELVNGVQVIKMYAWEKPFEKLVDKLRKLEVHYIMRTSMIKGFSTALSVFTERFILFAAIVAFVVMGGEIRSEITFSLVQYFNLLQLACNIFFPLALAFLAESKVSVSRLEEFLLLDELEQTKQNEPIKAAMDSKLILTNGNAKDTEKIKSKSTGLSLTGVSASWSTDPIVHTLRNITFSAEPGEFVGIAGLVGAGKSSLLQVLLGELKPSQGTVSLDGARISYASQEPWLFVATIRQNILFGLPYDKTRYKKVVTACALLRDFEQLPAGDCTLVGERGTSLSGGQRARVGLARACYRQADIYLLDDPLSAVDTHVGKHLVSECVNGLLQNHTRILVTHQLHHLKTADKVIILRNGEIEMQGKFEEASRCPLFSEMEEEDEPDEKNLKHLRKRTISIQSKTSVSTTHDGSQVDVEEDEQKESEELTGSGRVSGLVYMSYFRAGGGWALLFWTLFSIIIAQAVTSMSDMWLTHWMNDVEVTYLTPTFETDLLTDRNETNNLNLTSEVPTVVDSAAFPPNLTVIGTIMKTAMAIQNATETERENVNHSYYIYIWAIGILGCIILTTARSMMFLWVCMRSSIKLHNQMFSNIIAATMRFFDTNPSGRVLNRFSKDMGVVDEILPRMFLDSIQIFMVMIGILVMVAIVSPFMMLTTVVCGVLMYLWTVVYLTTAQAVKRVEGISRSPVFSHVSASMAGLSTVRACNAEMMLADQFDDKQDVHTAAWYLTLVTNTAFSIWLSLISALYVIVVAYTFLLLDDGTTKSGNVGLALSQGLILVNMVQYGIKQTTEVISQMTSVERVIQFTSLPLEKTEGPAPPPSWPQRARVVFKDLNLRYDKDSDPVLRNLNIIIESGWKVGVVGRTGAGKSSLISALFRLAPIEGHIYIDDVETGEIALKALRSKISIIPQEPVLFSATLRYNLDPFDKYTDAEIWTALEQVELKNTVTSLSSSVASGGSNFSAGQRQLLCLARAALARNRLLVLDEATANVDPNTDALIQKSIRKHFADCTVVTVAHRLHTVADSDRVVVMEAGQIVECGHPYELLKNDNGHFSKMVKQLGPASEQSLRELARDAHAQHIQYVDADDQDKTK

T1 sequence (main, as listed by the source): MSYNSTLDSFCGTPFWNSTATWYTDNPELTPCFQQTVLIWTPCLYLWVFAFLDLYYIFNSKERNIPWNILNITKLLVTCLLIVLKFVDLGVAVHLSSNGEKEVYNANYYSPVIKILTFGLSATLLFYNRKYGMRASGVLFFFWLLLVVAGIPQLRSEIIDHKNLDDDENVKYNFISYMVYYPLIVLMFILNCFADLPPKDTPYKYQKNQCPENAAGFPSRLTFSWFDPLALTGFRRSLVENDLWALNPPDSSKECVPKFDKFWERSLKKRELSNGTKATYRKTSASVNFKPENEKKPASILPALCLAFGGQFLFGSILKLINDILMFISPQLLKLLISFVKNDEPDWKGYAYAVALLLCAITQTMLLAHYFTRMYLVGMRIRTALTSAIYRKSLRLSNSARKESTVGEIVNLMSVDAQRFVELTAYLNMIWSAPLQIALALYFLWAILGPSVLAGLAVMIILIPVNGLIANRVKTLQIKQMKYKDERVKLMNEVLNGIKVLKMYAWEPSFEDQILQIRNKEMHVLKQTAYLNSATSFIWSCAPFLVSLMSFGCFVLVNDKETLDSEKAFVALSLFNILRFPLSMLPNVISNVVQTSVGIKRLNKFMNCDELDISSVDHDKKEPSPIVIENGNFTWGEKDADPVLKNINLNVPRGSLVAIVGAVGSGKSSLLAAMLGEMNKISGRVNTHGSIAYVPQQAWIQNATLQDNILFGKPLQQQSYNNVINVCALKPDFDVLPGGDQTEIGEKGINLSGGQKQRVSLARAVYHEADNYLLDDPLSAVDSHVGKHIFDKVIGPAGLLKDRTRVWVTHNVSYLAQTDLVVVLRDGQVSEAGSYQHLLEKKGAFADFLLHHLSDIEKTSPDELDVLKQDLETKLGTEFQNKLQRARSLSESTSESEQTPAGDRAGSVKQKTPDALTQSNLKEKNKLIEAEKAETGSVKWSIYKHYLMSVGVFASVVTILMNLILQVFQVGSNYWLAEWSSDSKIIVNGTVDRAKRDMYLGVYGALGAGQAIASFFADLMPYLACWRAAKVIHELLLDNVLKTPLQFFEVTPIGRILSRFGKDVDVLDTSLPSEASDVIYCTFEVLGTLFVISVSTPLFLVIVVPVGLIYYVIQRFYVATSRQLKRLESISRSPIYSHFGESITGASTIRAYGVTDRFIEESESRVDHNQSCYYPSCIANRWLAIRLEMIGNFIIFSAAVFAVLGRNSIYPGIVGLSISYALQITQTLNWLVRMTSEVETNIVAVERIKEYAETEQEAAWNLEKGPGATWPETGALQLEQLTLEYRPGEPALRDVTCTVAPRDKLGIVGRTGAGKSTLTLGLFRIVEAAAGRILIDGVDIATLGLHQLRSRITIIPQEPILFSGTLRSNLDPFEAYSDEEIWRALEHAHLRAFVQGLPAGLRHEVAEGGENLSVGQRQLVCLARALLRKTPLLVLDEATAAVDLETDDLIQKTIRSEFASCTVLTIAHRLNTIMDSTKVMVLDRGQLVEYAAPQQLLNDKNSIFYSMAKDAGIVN

B1: Cry1Aa toxin (trypsin-activated) (domain or fragment)
chain: not shown
[1]
  Kd: 46100 nM
[2]
  Kd: 267 nM

B2: Cry1Da toxin (trypsin-activated) (domain or fragment)
chain: ETGNTVADISLGLINFLYSNFVPGGGFIVGLLELIWGFIGPSQWDIFLAQIEQLISQRIEEFARNQAISRLEGLSNLYKVYVRAFSDWEKDPTNPALREEMRIQFNDMNSALITAIPLFRVQNYEVALLSVYVQAANLHLSILRDVSVFGERWGYDTATINNRYSDLTSLIHVYTNHCVDTYNQGLRRLEGRFLSDWIVYNRFRRQLTISVLDIVAFFPNYDIRTYPIQTATQLTREVYLDLPFINENLSPAASYPTFSAAESAIIRSPHLVDFLNSFTIYTDSLARYAYWGGHLVNSFRTGTTTNLIRSPLYGREGNTERPVTITASPSVPIFRTLSYITGLDNSNPVAGIEGVEFQNTISRSIYRKSGPIDSFSELPPQDASVSPAIGYSHRLCHATFLERISGPRIAGTVFSWTHRSASPTNEVSPSRITQIPWVKAHTLASGASVIKGPGFTGGDILTRNSMGELGTLRVTFTGRLPQSYYIRFRYASVANRSGTFRYSQPPSYGISFPKTMDAGEPLTSRSFAHTTLFTPITFSRAQEEFDLYIQSGVYIDRIEFIPVTAT
[1]
  Kd: 415 nM
[2]
  Kd: 63.7 nM

B3: Cry8Ca toxin (trypsin-activated) (domain or fragment)
chain: ISAQDAVGTGIDIVSTIISGLGIPVLGEVFSILGSLIGLLWPSNNENVWQIFMNRVEELIDQKILDSVRSRAIADLANSRIAVEYYQNALEDWRKNPHSTRSAALVKERFGNAEAILRTNMGSFSQTNYETPLLPTYAQAASLHLLVMRDVQIYGKEWGYPQNDIDLFYKEQVSYTARYSDHCVQWYNAGLNKLRGTGAKQWVDYNRFRREMNVMVLDLVALFPNYDARIYPLETNAELTREIFTDPVGSYVTGQSSTLISWYDMIPAALPSFSTLENLLRKPDFFTLLQEIRMYTSFRQNGTIEYYNYWGGQRLTLSYIYGSSFNKYSGVLAGAEDIIPVGQNDIYRVVWTYIGRYTNSLLGVNPVTFYFSNNTQKTYSKPKQFAGGIKTIDSGEELTYENYQSYSHRVSYITSFEIKSTGGTVLGVVPIFGWTHSSASRNNFIYATKISQIPINKASRTSGGAVWNFQEGLYNGGPVMKLSGSGSQVINLRVATDAKGASQRYRIRIRYASDRAGKFTISSRSPENPATYSASIAYTNTMSTNASLTYSTFAYAESGPINLGISGSSRTFDISITKEAGAANLYIDRIEF
[1]
  Kd: 34.8 nM
[2]
  Kd: 61.7 nM

B4: Cry9Aa toxin (trypsin-activated) (domain or fragment)
chain: YPLANNPYSSALNLNSCQNSSILNWINIIGDAAKEAVSIGTTIVSLITAPSLTGLISIVYDLIGKVLGGSSGQSISDLSICDLLSIIDLRVSQSVLNDGIADFNGSVLLYRNYLEALDSWNKNPNSASAEELRTRFRIADSEFDRILTRGSLTNGGSLARQNAQILLLPSFASAAFFHLLLLRDATRYGTNWGLYNATPFINYQSKLVELIELYTDYCVHWYNRGFNELRQRGTSATAWLEFHRYRREMTLMVLDIVASFSSLDITNYPIETDFQLSRVIYTDPIGFVHRSSLRGESWFSFVNRANFSDLENAIPNPRPSWFLNNMIISTGSLTLPVSPSTDRARVWYGSRDRISPANSQFITELISGQHTTATQTILGRNIFRVDSQACNLNDTTYGVNRAVFYHDASEGSQRSVYEGYIRTTGIDNPRVQNINTYLPGENSDIPTPEDYTHILSTTINLTGGLRQVASNRRSSLVMYGWTHKSLARNNTINPDRITQIPLTKVDTRGTGVSYVNDPGFIGGALLQRTDHGSLGVLRVQFPLHLRQQYRIRVRYASTTNIRLSVNGSFGTISQNLPSTMRLGEDLRYGSFAIREFNTSIRPTASPDQIRLTIEPSFIRQEVYVDRIEFIPVNPT
[1]
  Kd: 1.89 nM
